This passage reports EC50 results from patent publication US20100325744A1 (published 2010).

Sequences and labels used below:
B1: L236V (protein)
chain: ASTKGPSVFPLAPCSRSTSESTAALGCLVKDYFPEPVTVSWNSGALTSGVHTFPAVLQSSGLYSLSSVVTVPSSSLGTKTYTCNVDHKPSNTKVDKRVAPEFLGGPSVFLFPPKPKDTLMISRTPEVTCVVVDVSQEDPEVQFNWYVDGVEVHNAKTKPREEQFNSTYRVVSVLTVLHQDWLNGKEYKCKVSNKGLPSSIEKTISKAKGQPREPQVYTLPPSQEEMTKNQVSLTCVVKGFYPSDIAVEWESNGQPENNYKTTPPVLDSDGSFFLYSRLTVDKSRWQEGNVFSCSVMHEALHNHYTQKSLSLSLGK
B2: Y275A (protein)
chain: ASTKGPSVFPLAPCSRSTSESTAALGCLVKDYFPEPVTVSWNSGALTSGVHTFPAVLQSSGLYSLSSVVTVPSSSLGTKTYTCNVDHKPSNTKVDKRVAPEFLGGPSVFLFPPKPKDTLMISRTPEVTCVVVDVSQEDPEVQFNWYVDGVEVHNAKTKPREEQFNSTYRVVSVLTVLHQDWLNGKEYKCKVSNKGLPSSIEKTISKAKGQPREPQVYTLPPSQEEMTKNQVSLTCLVKGFYPSDIAVEWESNGQPENNYKTTPPVLDSDGSFFLASRLTVDKSRWQEGNVFSCSVMHEALHNHYTQKSLSLSLGK
B3: F273A (protein)
chain: ASTKGPSVFPLAPCSRSTSESTAALGCLVKDYFPEPVTVSWNSGALTSGVHTFPAVLQSSGLYSLSSVVTVPSSSLGTKTYTCNVDHKPSNTKVDKRVAPEFLGGPSVFLFPPKPKDTLMISRTPEVTCVVVDVSQEDPEVQFNWYVDGVEVHNAKTKPREEQFNSTYRVVSVLTVLHQDWLNGKEYKCKVSNKGLPSSIEKTISKAKGQPREPQVYTLPPSQEEMTKNQVSLTCLVKGFYPSDIAVEWESNGQPENNYKTTPPVLDSDGSFALYSRLTVDKSRWQEGNVFSCSVMHEALHNHYTQKSLSLSLGK
B4: WT (protein)
chain: ASTKGPSVFPLAPCSRSTSESTAALGCLVKDYFPEPVTVSWNSGALTSGVHTFPAVLQSSGLYSLSSVVTVPSSSLGTKTYTCNVDHKPSNTKVDKRVAPEFLGGPSVFLFPPKPKDTLMISRTPEVTCVVVDVSQEDPEVQFNWYVDGVEVHNAKTKPREEQFNSTYRVVSVLTVLHQDWLNGKEYKCKVSNKGLPSSIEKTISKAKGQPREPQVYTLPPSQEEMTKNQVSLTCLVKGFYPSDIAVEWESNGQPENNYKTTPPVLDSDGSFFLYSRLTVDKSRWQEGNVFSCSVMHEALHNHYTQKSLSLSLGK

This series concerns the molecule itself. Nature of the series: monomer to dimer conversion (% monomer vs concentration); self-association.
Take B1: the EC50 came out at 2160 nM. The value for B2 was 2190 nM; that for B3 was 3060 nM.

Turning to B4, the EC50 worked out at 39 nM.
